Data: publication PMC6034166

Biological target: ethylenediamine-N,N′-disuccinic acid lyase (EDDS lyase) from Chelativorans sp. BNC1 (Chelativorans sp. BNC1)
Assay: SEC + other: dynamic light scattering

ethylenediamine-N,N′-disuccinic acid lyase (EDDS lyase) from Chelativorans sp. BNC1 (enzyme)
stoichiometry N: 4
